Values belong to the binder of their own block, whether it stands above or below them.
Legend:
[1] = molecular target: the molecule itself; experiment: sedimentation velocity analytical ultracentrifugation, rapid monomer-dimer equilibrium model
Protocol: After purifying GST-hSTAU1⁵⁵(367-476) from E. coli and removing the GST tag, SSM-‘RBD’5 migrated during gel filtration at the size of a dimer Sedimentation velocity determinations using analytical ultracentrifugation confirmed that the average weight distribution of SSM-‘RBD’5 shifted to lower Svedberg values at lower concentrations (FIG. 10C).
hSTAU1-SSM-‘RBD’5 was purified as above, except the final GF buffer contained 2.97 mM DTT, and submitted to the University of Connecticut Analytical Ultracentrifugation Facility for sedimentation velocity analysis. […] Measuring refractive index rather than absorbance was especially useful considering the low extinction coefficient at A₂₈₀ that typifies SSM-‘RBD’5; which lacks tryptophan residues. […] Data were analyzed using: 1) DcDt+, version 2.0.9 (Philo, 2000; 2006), to determine the sedimentation coefficient distribution that was independent of a model, 2) Sedfit, version 10.09beta (Schuck, 2000), to produce a model-based continuous sedimentation coefficient distribution using the Lamm equation or c(s) to identify the number of species (e.g., monomers vs dimers) in solution, and 3) Sedanal, version 5.60 to combine datasets from the three highest of four concentrations tested, perform a global analysis, and determine the protein association model using the Lamm equation.

[2] = molecular target: the molecule itself; experiment: gel filtration of the E. coli-made protein
Protocol: Since hSTAU1^{55(R)}Δ(SSM-‘RBD’5)-FLAG still had residual dimerization activity (10% that of hSTAU1^{55(R)}-FLAG), and in view of reports that hSTAU1 ‘RBD’2 amino acids 37-79 can interact with full-length hSTAU1, the ability of E. coli-produced ‘RBD’2-RBD3 amino acids 43-173 to dimerize was assayed.
Size standards were prepared by dissolving dried proteins in 2 ml of GF buffer containing 2.97 mM DTT. Proteins consisted of 3.8 mg of conalbumin (75 kDa), 2.3 mg carbonic anhydrase (29 kDa) and 6.7 mg aprotinin(6.5 kDa), each from the Low Molecular Weight Gel Filtration Calibration Kit (GE Healthcare; #28-4038-41), and 6 mg of lysozyme (14.3 kDa) (Sigma; #L6876-10G). The dissolved solution (1 ml, determined using a 1 ml loop) was loaded onto a 120 ml HiLoad™Superdex™ 200 16/60 prep-grade column (GE Healthcare) and separated at a 1 ml/min flow rate using the BioLogicDuoFlow™ FPLC system. For size estimations, gel-filtration of SSM-‘RBD’5 (WT), SSM-‘RBD’5 (E424H, D427V) and ‘RBD’2-RBD3 was performed as described for the size standards. SSM-‘RBD’5 (WT) was loaded at 8 mg/ml, SSM-‘RBD’5 (E424H, D427V) was loaded, and ‘RBD’2-RBD3 was loaded at 6 mg/ml.

hSTAU1^55-HA3 [3] = molecular target: T1, hSTAU1^55-HA3 (human, UniProt O95793-2 1-496); experiment: anti-FLAG and anti-HA co-IP from HEK293T lysates with RNase A
T1 construct: also called STAU1-HA3
T1 sequence (looked up): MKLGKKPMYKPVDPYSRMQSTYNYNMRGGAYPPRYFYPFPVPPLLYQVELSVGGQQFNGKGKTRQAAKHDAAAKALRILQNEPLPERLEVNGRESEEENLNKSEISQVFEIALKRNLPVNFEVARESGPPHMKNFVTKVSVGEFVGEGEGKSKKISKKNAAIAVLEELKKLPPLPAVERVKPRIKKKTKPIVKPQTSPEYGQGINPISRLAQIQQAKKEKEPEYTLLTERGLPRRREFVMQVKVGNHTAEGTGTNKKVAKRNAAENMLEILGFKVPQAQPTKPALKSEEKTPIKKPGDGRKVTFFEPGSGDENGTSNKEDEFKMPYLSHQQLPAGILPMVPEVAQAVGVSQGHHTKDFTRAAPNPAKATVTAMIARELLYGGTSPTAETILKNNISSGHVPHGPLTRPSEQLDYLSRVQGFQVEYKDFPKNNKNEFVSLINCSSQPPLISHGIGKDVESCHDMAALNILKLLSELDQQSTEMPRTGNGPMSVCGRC
Excerpt: (§1) To test this idea, HEK293T cells were transiently transfected with hSTAU1⁵⁵-HA₃ and one of three siRNA-resistant (R) plasmids that produce either hSTAU1^{55(R)}-FLAG, hSTAU1^{55(R)}Δ(C-Term)-FLAG or hSTAU1^{55(R)}Δ(SSM-‘RBD’5)-FLAG, each of which was expressed at the level of cellular hSTAU 1. hSTAU1^{55(R)}Δ(C-Term)-FLAG lacks all amino acids C-terminal to ‘RBD’5 Δ1. Cell lysates were immunoprecipitated in the presence of RNaseA using anti-FLAG or, as a negative control, mIgG.

hSTAU1^55-HA3 [4] = molecular target: T1, hSTAU1^55-HA3; experiment: anti-HA co-IP (reverse direction) from HEK293T lysates, quantitated western blot
Excerpt: as §1, with “Cell lysates were immunoprecipitated in the presence of RNaseA using anti-FLAG or, as a negative control, mIgG.” left out
(§2) The level of hSTAU1⁵⁵-HA₃ or cellular hUPF1 that co-immunoprecipitated with hSTAU1^{55(R)}Δ(SSM-‘RBD’5)—FLAG was only ˜10% the level of, respectively, hSTAU1⁵⁵-HA₃ or cellular hUPF1 that co-immunoprecipitated with hSTAU1^{55(R)}-FLAG or hSTAU1^{55(R)}Δ(C-Term)-FLAG.

hSTAU1^55-HA3 [5] = molecular target: T1, hSTAU1^55-HA3; experiment: anti-FLAG co-IP from HEK293T lysates with RNase A, quantitated western blot
Excerpt: as §1, §2

cellular hUPF1 = molecular target: T2, cellular hUPF1 (human, UniProt Q92900-2 1-1118, limits assumed); experiment: as above
T2 construct: Endogenous protein detected by western blotting
T2 sequence (looked up): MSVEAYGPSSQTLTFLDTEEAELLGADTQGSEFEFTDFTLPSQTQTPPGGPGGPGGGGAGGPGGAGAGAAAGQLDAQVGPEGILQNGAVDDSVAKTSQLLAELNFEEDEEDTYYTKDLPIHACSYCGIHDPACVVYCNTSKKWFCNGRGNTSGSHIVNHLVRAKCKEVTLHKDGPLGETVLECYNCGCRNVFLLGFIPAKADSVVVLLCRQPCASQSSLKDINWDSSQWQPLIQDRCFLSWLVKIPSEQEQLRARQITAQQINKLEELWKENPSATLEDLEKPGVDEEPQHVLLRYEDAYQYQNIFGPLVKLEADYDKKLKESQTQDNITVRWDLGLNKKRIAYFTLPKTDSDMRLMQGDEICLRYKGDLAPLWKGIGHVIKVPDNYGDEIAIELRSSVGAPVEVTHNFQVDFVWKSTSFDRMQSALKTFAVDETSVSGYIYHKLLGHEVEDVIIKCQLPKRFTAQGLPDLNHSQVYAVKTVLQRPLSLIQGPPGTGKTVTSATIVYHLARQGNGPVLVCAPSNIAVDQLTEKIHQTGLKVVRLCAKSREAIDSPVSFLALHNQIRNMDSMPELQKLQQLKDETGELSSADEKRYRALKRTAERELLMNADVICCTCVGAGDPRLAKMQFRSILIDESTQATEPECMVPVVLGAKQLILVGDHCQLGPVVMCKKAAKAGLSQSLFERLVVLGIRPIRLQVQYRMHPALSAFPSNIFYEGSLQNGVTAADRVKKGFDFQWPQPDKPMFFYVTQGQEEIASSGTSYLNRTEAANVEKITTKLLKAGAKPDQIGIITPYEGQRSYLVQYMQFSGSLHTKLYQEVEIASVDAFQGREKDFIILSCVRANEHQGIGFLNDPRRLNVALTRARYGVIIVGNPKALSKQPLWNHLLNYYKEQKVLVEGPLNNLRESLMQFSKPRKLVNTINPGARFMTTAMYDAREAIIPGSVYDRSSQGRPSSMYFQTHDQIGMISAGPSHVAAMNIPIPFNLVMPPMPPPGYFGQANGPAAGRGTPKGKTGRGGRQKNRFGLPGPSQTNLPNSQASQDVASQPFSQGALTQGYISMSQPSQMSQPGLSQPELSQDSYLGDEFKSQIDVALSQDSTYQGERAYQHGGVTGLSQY
Excerpt: as §1, §2

B1: hSTAU1 SSM-‘RBD’5 (hSTAU1^55 amino acids 367-476, GST tag removed) (other)
chain: GPLGSKATVTAMIARELLYGGTSPTAETILKNNISSGHVPHGPLTRPSEQLDYLSRVQGFQVEYKDFPKNNKNEFVSLINCSSQPPLISHGIGKDVESCHDMAALNILKLLSELD
notes: Made in E. coli as a GST fusion from pGEX-6p-1, GST cleaved off; In monomer-dimer equilibrium; also called SSM-‘RBD’5(WT); hSTAU1^55(367-476)
Kd [1]: 79 µM

B2: hSTAU1 ‘RBD’2-RBD3 (amino acids 43-173) (other, human, UniProt O95793-2 43-173, looked up)
chain: PLLYQVELSVGGQQFNGKGKTRQAAKHDAAAKALRILQNEPLPERLEVNGRESEEENLNKSEISQVFEIALKRNLPVNFEVARESGPPHMKNFVTKVSVGEFVGEGEGKSKKISKKNAAIAVLEELKKLPP
notes: range 43-173; Made in E. coli from pGEX-6p-1 and cut with PreScission Protease; also called product of pGEX-6p-1-hSTAU1-‘RBD’2-RBD3
binding result [2]: binds

B3: hSTAU1^55(R)Δ(C-Term)-FLAG (other, human, UniProt O95793-2 1-422, looked up, not shown: small tags and cut ends)
chain: MKLGKKPMYKPVDPYSRMQSTYNYNMRGGAYPPRYFYPFPVPPLLYQVELSVGGQQFNGKGKTRQAAKHDAAAKALRILQNEPLPERLEVNGRESEEENLNKSEISQVFEIALKRNLPVNFEVARESGPPHMKNFVTKVSVGEFVGEGEGKSKKISKKNAAIAVLEELKKLPPLPAVERVKPRIKKKTKPIVKPQTSPEYGQGINPISRLAQIQQAKKEKEPEYTLLTERGLPRRREFVMQVKVGNHTAEGTGTNKKVAKRNAAENMLEILGFKVPQAQPTKPALKSEEKTPIKKPGDGRKVTFFEPGSGDENGTSNKEDEFKMPYLSHQQLPAGILPMVPEVAQAVGVSQGHHTKDFTRAAPNPAKATVTAMIARELLYGGTSPTAETILKNNISSGHVPHGPLTRPSEQLDYLSRVQGFQ
notes: domain: lacks all amino acids C-terminal to ‘RBD’5 α1; End at residue 422 is read from the primer; also called product of pcI-neo-hSTAU1^55(R)Δ(C-Term)-FLAG
binding result (hSTAU1^55-HA3 [3]): binds

Now from value to binder:

level co-immunoprecipitated with hSTAU1^55-HA relative to hSTAU1^55(R)-FLAG or hSTAU1^55(R)Δ(C-Term)-FLAG (hSTAU1^55-HA3 [4]): ~10%
level of co-immunoprecipitated hSTAU1^55-HA3 relative to that with hSTAU1^55(R)-FLAG or hSTAU1^55(R)Δ(C-Term)-FLAG (hSTAU1^55-HA3 [5]): ~10%
level of co-immunoprecipitated cellular hUPF1 relative to that with hSTAU1^55(R)-FLAG or hSTAU1^55(R)Δ(C-Term)-FLAG (cellular hUPF1): ~10%
B4: hSTAU1^55(R)Δ(SSM-‘RBD’5)-FLAG (other, human, UniProt O95793-2 1-363, looked up, not shown: small tags and cut ends)
chain: MKLGKKPMYKPVDPYSRMQSTYNYNMRGGAYPPRYFYPFPVPPLLYQVELSVGGQQFNGKGKTRQAAKHDAAAKALRILQNEPLPERLEVNGRESEEENLNKSEISQVFEIALKRNLPVNFEVARESGPPHMKNFVTKVSVGEFVGEGEGKSKKISKKNAAIAVLEELKKLPPLPAVERVKPRIKKKTKPIVKPQTSPEYGQGINPISRLAQIQQAKKEKEPEYTLLTERGLPRRREFVMQVKVGNHTAEGTGTNKKVAKRNAAENMLEILGFKVPQAQPTKPALKSEEKTPIKKPGDGRKVTFFEPGSGDENGTSNKEDEFKMPYLSHQQLPAGILPMVPEVAQAVGVSQGHHTKDFTRAAP
notes: domain: Δ(SSM-‘RBD’5); End at residue 363 is read from the primer; also called product of pcI-neo-hSTAU1^55(R)Δ(SSM-‘RBD’5)-FLAG

binding result (hSTAU1^55-HA3 [3]): binds
B5: hSTAU1^55(R)-FLAG (other, human, UniProt O95793-2 1-496, looked up, not shown: small tags and cut ends)
chain: T1 sequence (looked up)
notes: Expressed in HEK293T cells at the level of cellular hSTAU1; also called product of pcI-neo-hSTAU1^55(R)-FLAG
